US20250115671A1 (BEIGENE, published 2025)
Changes are numbered by the printed parent chain.

B1: Ch305-AF (antibody, V domains shown)
VH: QVQMKQSGPSLVQPSQSLSITCTVSGFSLTSYGVHWVRQSPGKGLEWLGVIWRGGTTDYNAAFMSRLSFTKDSSKSQVFFKLNSLQADDTAIYYCAKNRVTTVVAPNFYAMDYWGQGTSVTVSS
VL: DIVMTQSPSSLAVSVGEKVTMSCKSSQSLLYSGNQKNYLAWYQQKPGQSPKLLIYWASTRKSGVPDRLTGSGSGTDFTLTISSVKAEDLAAYYCQQYYTYPLTFGAGTRLEIK
notes: human IgG1/kappa; also called afucosylated Ch305
B2: hu305-5W-3a-AF (antibody, V domains shown)
VH: QVQLKQSGPGLVKPSETLSLTCTVSGFSLAVYGVHWVRQPPGKGLEWLGVIWRGGTTDYNPSLKSRLTFSKDSSKSQVSLKLSSVTAADTAVYYCAKNRVTTVVAPNFYAMDYWGQGTLVTVSS
VL: DIVMTQSPDSLAVSLGERATINCKSSQSLLYSGNQKNYLAWYQQKPGQPPKLLIYWASTRKSGVPDRFSGSGSGTDFTLTISSLKAEDVAVYYCQQYYTYPLTFGQGTRLEIK
notes: also called afucosylated hu305-5W-3a
B3: hu305-4F-2l-AF (antibody, V domains shown)
VH: B2 VH with K5Q, Q6E, E16Q
VL: B2 VL with A19V, I21M, P49S, K85Q, V91A
notes: also called hu305-4F-21-AF; hu305-4F-21
B4: hu305-5P-3a-AF (antibody, V domains shown)
VH: B2 VH with A30T, V31S, L67V, S76N
VL: B2 VL
B5: hu305-4F-2m-AF (antibody, V domains shown)
VH: B2 VH with K5Q, Q6E, E16Q
VL: B2 VL with A19V, P49S, K85Q, V91A

Legend:
human CCR8 [1] = molecular target: T1, human CCR8 (human, UniProt P51685 1-355); assay: flow cytometry, Jurkat-human CCR8 cells
Procedure: To evaluate the binding activity of anti-CCR8 antibodies to bind CCR8 expressed on living cells, Jurkat cells were engineered to over-express human CCR8. Jurkat-human CCR8 cells were seeded in 96-well plate and incubated with a series of dilutions of anti-CCR8 antibodies. Goat anti-human IgG was used as secondary antibody to detect antibody binding to the cell surface. EC50 values for dose-dependent binding to human CCR8 were determined by fitting the dose-response data to the four-parameter logistic model with GraphPad Prism. As shown in Table 4 and FIG. 3 the CCR8 antibodies had high binding affinity to human CCR8.

human CCR8 [2] = molecular target: T1, human CCR8; assay: flow cytometry, stimulated human primary Treg cells (high CCR8)
Procedure: Treg binding of the humanized antibodies was measured on Treg cells from human PBMC. Briefly, CD25+ cells were isolated from human PBMC. The cells were stimulated with IL-2, TGFβ and anti-CD3/CD28 beads for high CCR8-expression level Treg cells. Next, Treg cells were seeded in 96-well plate and incubated with a series of dilutions of anti-CCR8 antibodies. Goat anti-human IgG was used as secondary antibody to detect antibody binding to the cell surface. EC50 values for dose-dependent binding to human CCR8 were determined by fitting the dose-response data to the four-parameter logistic model with GraphPad Prism. As shown in FIG. 6A and Table 12 the hu305-5W-3a had the highest binding affinity to CCR8 on Treg cells of the humanized antibodies. As noted in Table 12 and FIG. 6A below, the hu305-5W-3a antibody also had the lowest IC50 regarding reducing ligand-receptor interaction.

human CCR8 [3] = molecular target: T1, human CCR8; assay: flow cytometry, Jurkat/huCCR8 cells, Test2
Procedure: (§1) To evaluate the binding activities of anti-CCR8 antibodies to bind native CCR8 on live cells, Jurkat cells (ATCC TIB-15) were engineered to over-express human CCR8. Live Jurkat/huCCR8 cells were seeded in 96-well plate, and were incubated with a series of dilutions of anti-CCR8 antibodies. Alexa Fluor® 647 anti-Human IgG Fc Antibody (Biolegend cat: 410714) was used as a secondary antibody to detect antibody binding to CCR8 expressed on the cell surface. EC50 values for dose-dependent binding to human native CCR8 were determined by fitting the dose-response data to the four-parameter logistic model with GraphPad Prism.

human CCR8 [4] = molecular target: T1, human CCR8; assay: flow cytometry, Jurkat/huCCR8 cells, Test1
Procedure: as §1

Cynomolgus Monkey CCR8 = molecular target: T2, Cynomolgus Monkey CCR8 (cynomolgus monkey, UniProt O97665 1-356 (rhesus entry)); assay: flow cytometry, 293T-cynoCCR8 cells
T2 construct: also called cyno CCR8; cynoCCR8
Procedure: Goat anti-human IgG was used as secondary antibody to detect antibody binding to the cell surface. EC50 values for dose-dependent binding to cyno CCR8 were determined by fitting the dose-response data to the four-parameter logistic model with GraphPad Prism.

human CCR8 [5] = molecular target: T1, human CCR8; assay: cell-based or functional assay
human CCR8 [6] = molecular target: T1, human CCR8; assay: cell-based or functional assay; remark: listed apart in the source

T2 sequence (O97665 other isoform, or with tags, fused parts or gaps): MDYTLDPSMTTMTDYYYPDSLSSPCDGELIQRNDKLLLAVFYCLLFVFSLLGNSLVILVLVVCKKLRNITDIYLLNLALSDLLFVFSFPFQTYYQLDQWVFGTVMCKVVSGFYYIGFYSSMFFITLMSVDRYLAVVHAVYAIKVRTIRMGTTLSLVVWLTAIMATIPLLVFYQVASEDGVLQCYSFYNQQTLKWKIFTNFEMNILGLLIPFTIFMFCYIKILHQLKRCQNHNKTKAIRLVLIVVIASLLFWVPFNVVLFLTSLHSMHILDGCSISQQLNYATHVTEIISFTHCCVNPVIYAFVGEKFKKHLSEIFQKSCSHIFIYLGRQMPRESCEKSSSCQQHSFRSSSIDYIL
T1 sequence (P51685 whole entry): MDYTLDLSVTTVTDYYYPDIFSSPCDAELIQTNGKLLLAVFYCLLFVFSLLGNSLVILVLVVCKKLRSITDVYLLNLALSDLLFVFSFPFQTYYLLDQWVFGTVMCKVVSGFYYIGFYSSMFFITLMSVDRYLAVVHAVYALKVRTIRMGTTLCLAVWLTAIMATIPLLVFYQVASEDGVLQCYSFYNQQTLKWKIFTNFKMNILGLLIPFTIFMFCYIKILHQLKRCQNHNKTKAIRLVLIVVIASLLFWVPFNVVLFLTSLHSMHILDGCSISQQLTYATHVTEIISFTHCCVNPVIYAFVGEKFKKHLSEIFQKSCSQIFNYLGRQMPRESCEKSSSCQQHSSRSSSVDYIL

Molecule	Emax (human CCR8 [1]) [RFU]	Emax (human CCR8 [2]) [RLU]	EC50 (human CCR8 [2]) [nM]	EC50 (human CCR8 [3]) [nM]	Emax (human CCR8 [3]) [MFI]	EC50 (human CCR8 [4]) [nM]	Emax (human CCR8 [4]) [MFI]	EC50 (Cynomolgus Monkey CCR8) [nM]	Emax (Cynomolgus Monkey CCR8) [RLU]	IC50(nM), blocking activity (human CCR8 [5]) [nM]	Imax(%), blocking activity (human CCR8 [5]) [%]	EC50 (nM), NK cell mediated cytotoxicity (ADCC) on CCR8-expressing Treg (human CCR8 [6]) [nM]	Emax (%), NK cell mediated cytotoxicity (ADCC) on CCR8-expressing Treg (human CCR8 [6]) [%]
hIgG (antibody)	204	60											
B1		1750	90.7	4.75	16600	3.88	25200	14.8	11900	1.84	87.8	0.064	75.1
B2		2030	47.6	2.98	16700			12.5	12400	1.82	87.3	0.059	75.5
B3		1760	117			6.01	23500	16.7	12500	6.19	78	0.396	72.3
B4		1720	35.2	2.99	17500			9.83	12600	10.5	77.1	0.077	73.7
B5		1860	136			5.83	22900	16.6	12300	13.1	75.6	0.585	70.9
